± gives the standard deviation of the averaged measurements.
What was measured:
Saccharomyces cerevisiae [1] = assay: protein stability index of tFT-peptide fusion (C-terminal peptide) (PSI (0-1 scale)); higher = more stable (slower turnover)
Method: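 MPS profiling in S. cerevisiae of the tFT-X12 degron library: putative degron peptides plus stable controls, 12 aa, fused to the C-terminus of a sfGFP-mCherry timer. Cells are FACS-sorted into 8 mCherry/sfGFP bins and deep-sequenced. PSI runs from 0 (unstable) to 1 (stable). Backgrounds are wild type, das1Δ and doa10Δ at 30 °C, and wild type, das1Δ, cdc34-1 and cdc53-1 at 37 °C; 2-3 technical replicates each.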

Saccharomyces cerevisiae [2] = assay: as above; conditions: genetic background: wild type; temperature: 30 C
[3] = genetic background: cdc34-1, temperature: 37 C
[4] = genetic background: cdc53-1, temperature: 37 C
[5] = genetic background: das1 deletion, temperature: 30 C
[6] = genetic background: das1 deletion, temperature: 37 C
[7] = genetic background: doa10 deletion, temperature: 30 C
[8] = genetic background: wild type, temperature: 30 C
[9] = genetic background: wild type, temperature: 37 C
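Further: PSI is a weighted mean of sequencing reads over stability bins, variants kept only with over 10 reads, mCherry proximal and sfGFP distal, peptide attached via GGGS linker.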

Sequence | protein stability index (Saccharomyces cerevisiae [1]; [3]) | protein stability index (Saccharomyces cerevisiae [1]; [4]) | protein stability index (Saccharomyces cerevisiae [1]; [5]) | protein stability index (Saccharomyces cerevisiae [1]; [6]) | protein stability index (Saccharomyces cerevisiae [1]; [7]) | protein stability index (Saccharomyces cerevisiae [1]; [8]) | protein stability index (Saccharomyces cerevisiae [1]; [9]) | protein stability index (Saccharomyces cerevisiae [2])
AAVQVCVLLLLL | 0.366 ± 0.029 | 0.476 ± 0.032 | 0.341 ± 0.037 | 0.521 ± 0.014 | 0.302 ± 0.0072 | 0.337 ± 0.017 | 0.497 ± 0.014 | 0.414 ± 0.0057
ACSRKPIWVTWL | 0.666 ± 0.057 | 0.747 ± 0.0079 | 0.648 ± 0.023 | 0.732 ± 0.016 | 0.259 ± 0.0057 | 0.276 ± 0.058 | 0.51 ± 0.031 | 0.35 ± 0.065
AFLLVLFCCVSC | 0.241 ± 0.044 | 0.258 ± 0.0057 | 0.252 ± 0.023 | 0.3459 ± 0.0017 | 0.229 ± 0.0086 | 0.225 ± 0.023 | 0.303 ± 0.01 | 0.298 ± 0.018
AFLWSLFVFFRF | 0.254 ± 0.056 | 0.183 ± 0.0084 | 0.31 ± 0.035 | 0.355 ± 0.0011 | 0.421 ± 0.017 | 0.269 ± 0.042 | 0.363 ± 0.018 | 0.393 ± 0.085
AFVVPLFLCCCG | 0.1836 ± 0.0015 | 0.165 ± 0.013 | 0.212 ± 0.025 | 0.2768 ± 0.0025 | 0.184 ± 0.014 | 0.209 ± 0.014 | 0.235 ± 0.0042 | 0.255 ± 0.0048
AFYLCLYFMPVS | 0.454 ± 0.026 | 0.548 ± 0.036 | 0.371 ± 0.028 | 0.503 ± 0.012 | 0.358 ± 0.032 | 0.367 ± 0.029 | 0.52 ± 0.0093 | 0.4375 ± 0.0033
AGAFRIVWWALR | 0.652 ± 0.034 | 0.6935 ± 0.00096 | 0.578 ± 0.027 | 0.711 ± 0.0098 | 0.586 ± 0.02 | 0.578 ± 0.015 | 0.68 ± 0.014 | 0.528 ± 0.073
ALFLLWVVMHDV | 0.2376 ± 0.0022 | 0.337 ± 0.021 | 0.247 ± 0.036 | 0.421 ± 0.018 | 0.195 ± 0.024 | 0.219 ± 0.035 | 0.397 ± 0.022 | 0.343 ± 0.011
ALLWEFVPCSVR | 0.521 ± 0.032 | 0.52 ± 0.0073 | 0.354 ± 0.036 | 0.56 ± 0.0061 | 0.3287 ± 0.0015 | 0.375 ± 0.022 | 0.5347 ± 0.0023 | 0.453 ± 0.015
ALRGLWFPFSCL | 0.66 ± 0.023 | 0.765 ± 0.0018 | 0.68 ± 0.024 | 0.8093 ± 0.0029 | 0.168 ± 0.032 | 0.193 ± 0.028 | 0.283 ± 0.01 | 0.393 ± 0.022
ALSGLARFIVCH | 0.308 ± 0.0074 | 0.358 ± 0.019 | 0.272 ± 0.043 | 0.4268 ± 0.0034 | 0.2054 ± 0.0015 | 0.243 ± 0.031 | 0.392 ± 0.016 | 0.428 ± 0.026
ALVGEVLWFQLV | 0.684 ± 0.039 | 0.7569 ± 0.006 | 0.651 ± 0.023 | 0.749 ± 0.013 | 0.317 ± 0.0039 | 0.357 ± 0.034 | 0.586 ± 0.029 | 0.471 ± 0.0021
APLLPPALALTC | 0.533 ± 0.029 | 0.516 ± 0.038 | 0.389 ± 0.034 | 0.5268 ± 0.0035 | 0.3512 ± 0.00062 | 0.407 ± 0.028 | 0.484 ± 0.02 | 0.505 ± 0.025
ARGVAAAFVSGF | 0.696 ± 0.043 | 0.7725 ± 0.0057 | 0.657 ± 0.03 | 0.746 ± 0.016 | 0.661 ± 0.023 | 0.653 ± 0.0078 | 0.725 ± 0.03 | 0.595 ± 0.23
ARRGHNCAAVFL | 0.6953 ± 0.0068 | 0.7426 ± 0.0071 | 0.666 ± 0.026 | 0.7447 ± 0.0047 | 0.65 ± 0.022 | 0.663 ± 0.024 | 0.718 ± 0.0074 | 0.643 ± 0.3
ARTWVVLLICGH | 0.4159 ± 0.0012 | 0.479 ± 0.025 | 0.355 ± 0.032 | 0.563 ± 0.04 | 0.28 ± 0.0056 | 0.328 ± 0.019 | 0.531 ± 0.045 | 0.423 ± 0.033
ASWRYMFPVTLG | 0.576 ± 0.031 | 0.574 ± 0.045 | 0.555 ± 0.039 | 0.685 ± 0.031 | 0.383 ± 0.021 | 0.306 ± 0.039 | 0.4618 ± 0.0041 | 0.367 ± 0.032
AVCVVVMAVFVG | 0.339 ± 0.056 | 0.4098 ± 0.0026 | 0.297 ± 0.028 | 0.417 ± 0.012 | 0.293 ± 0.022 | 0.3 ± 0.012 | 0.397 ± 0.021 | 0.3646 ± 0.0028
CASVCCFFAWIV | 0.571 ± 0.028 | 0.623 ± 0.011 | 0.46 ± 0.046 | 0.5941 ± 0.0019 | 0.299 ± 0.017 | 0.323 ± 0.0068 | 0.4749 ± 0.00052 | 0.416 ± 0.06
CCVFFLLCLSLF | 0.419 ± 0.016 | 0.44 ± 0.024 | 0.341 ± 0.01 | 0.469 ± 0.023 | 0.353 ± 0.012 | 0.313 ± 0.0084 | 0.4223 ± 0.0038 | 0.354 ± 0.044
CFFGFRAGLFLG | 0.507 ± 0.0082 | 0.7205 ± 0.0047 | 0.593 ± 0.018 | 0.754 ± 0.052 | 0.176 ± 0.002 | 0.155 ± 0.0076 | 0.247 ± 0.072 | 0.214 ± 0.016
CFFVSLFFYIDC | 0.207 ± 0.055 | 0.296 ± 0.0032 | 0.215 ± 0.021 | 0.392 ± 0.0061 | 0.191 ± 0.014 | 0.203 ± 0.042 | 0.35 ± 0.0022 | 0.323 ± 0.011
CFGSALLKCWLC | 0.602 ± 0.037 | 0.726 ± 0.018 | 0.665 ± 0.013 | 0.7708 ± 0.0038 | 0.299 ± 0.002 | 0.303 ± 0.032 | 0.44 ± 0.0044 | 0.406 ± 0.035
CFLSWSLRFFIL | 0.387 ± 0.094 | 0.507 ± 0.022 | 0.482 ± 0.031 | 0.554 ± 0.034 | 0.132 ± 0.0019 | 0.118 ± 0.0054 | 0.139 ± 0.013 | 0.206 ± 0.011
CFVRCFVSIRLF | 0.109 ± 0.041 | 0.167 ± 0.0043 | 0.163 ± 0.019 | 0.3093 ± 0.0021 | 0.0737 ± 0.012 | 0.0716 ± 0.026 | 0.146 ± 0.015 | 0.133 ± 0.034
CGGLFDVALGVG | 0.457 ± 0.031 | 0.5096 ± 0.0026 | 0.449 ± 0.01 | 0.522 ± 0.011 | 0.477 ± 0.021 | 0.468 ± 0.023 | 0.516 ± 0.0067 | 0.471 ± 0.027
CGGVQVWRVKVV | 0.657 ± 0.023 | 0.715 ± 0.012 | 0.605 ± 0.011 | 0.722 ± 0.0077 | 0.18 ± 0.016 | 0.221 ± 0.018 | 0.401 ± 0.0066 | 0.3403 ± 0.002
CGSFWVNVLCAV | 0.402 ± 0.01 | 0.422 ± 0.018 | 0.334 ± 0.035 | 0.497 ± 0.01 | 0.2657 ± 0.0011 | 0.299 ± 0.034 | 0.444 ± 0.0067 | 0.402 ± 0.013
CILYLSWIIFRA | 0.161 ± 0.037 | 0.192 ± 0.011 | 0.198 ± 0.041 | 0.343 ± 0.0091 | 0.213 ± 0.034 | 0.174 ± 0.028 | 0.334 ± 0.068 | 0.146 ± 0.026
CLLDVVMVVERG | 0.384 ± 0.055 | 0.432 ± 0.0095 | 0.347 ± 0.032 | 0.4016 ± 0.0028 | 0.364 ± 0.035 | 0.347 ± 0.016 | 0.392 ± 0.0043 | 0.365 ± 0.012

From the supplement of paper PMC10724198
